B1: KCNA1 (parent)
chain: LKASMRELGLLIFFLFIGVILFSS
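Further: lentivirally expressed fusions sorted by FACS into six bins by GFP to DsRed ratio, PSI derived from sequencing read proportions per bin multiplied by bin number.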

The series covers variants of B1. Kind of series: protein stability index of a GFP-peptide fusion (GPS, HEK-293T) (PSI 1-6); higher = more stable. To be noted: c terminus: a fixed tail appended.
On to LKASMREKGLLIFFLFIGVILFSS [L8K], for which the protein stability index is 2.58. Consider LKASMREDGLLIFFLFIGVILFSS [L8D], for which the protein stability index was found to be 2.32.

Take LKASMREFGLLIFFLFIGVILFSS [L8F]: the protein stability index amounted to 2.39. With LKASMRETGLLIFFLFIGVILFSS [L8T], the protein stability index was 2.48. Turning to LKASMREHGLLIFFLFIGVILFSS [L8H], the protein stability index worked out at 2.1. With LKASMRESGLLIFFLFIGVILFSS [L8S], the protein stability index was 2.08. Take LKASMREWGLLIFFLFIGVILFSS [L8W]: the protein stability index is 2.85. As to LKASMREMGLLIFFLFIGVILFSS [L8M], the protein stability index was 2.26. Take LKASMREGGLLIFFLFIGVILFSS [L8G]: the protein stability index was 1.65.

As to LKASMREYGLLIFFLFIGVILFSS [L8Y], the protein stability index was 2.58. Regarding LKASMREQGLLIFFLFIGVILFSS [L8Q], the protein stability index stood at 2.55. As for LKASMREPGLLIFFLFIGVILFSS [L8P], the protein stability index came out at 3.22. In the case of LKASMREIGLLIFFLFIGVILFSS [L8I], the protein stability index was 2.27.

As to LKASMREVGLLIFFLFIGVILFSS [L8V], the protein stability index was found to be 2.42.

For the variant LKASMRECGLLIFFLFIGVILFSS [L8C], the protein stability index was determined as 2.28. As for LKASMREEGLLIFFLFIGVILFSS [L8E], the protein stability index stood at 4. Then LKASMRERGLLIFFLFIGVILFSS [L8R], with 2.8; and LKASMREAGLLIFFLFIGVILFSS [L8A], with 2.58; and LKASLRELGLLIFFLFIGVILFSS [M5L], with 1.82.

Consider LKASCRELGLLIFFLFIGVILFSS [M5C], for which the protein stability index worked out at 2.92. As for LKASYRELGLLIFFLFIGVILFSS [M5Y], the protein stability index was 2.42. With LKASFRELGLLIFFLFIGVILFSS [M5F], the protein stability index worked out at 1.98. For LKASTRELGLLIFFLFIGVILFSS [M5T], the protein stability index was 2.21. Take LKASDRELGLLIFFLFIGVILFSS [M5D]: the protein stability index was determined as 2.29. As to LKASKRELGLLIFFLFIGVILFSS [M5K], the protein stability index turned out to be 1.94. LKASIRELGLLIFFLFIGVILFSS [M5I]: the protein stability index worked out at 2.19. For the variant LKASRRELGLLIFFLFIGVILFSS [M5R], the protein stability index amounted to 1.76. Then LKASQRELGLLIFFLFIGVILFSS [M5Q], with 3.33; and LKASARELGLLIFFLFIGVILFSS [M5A], with 3.19.

With LKASPRELGLLIFFLFIGVILFSS [M5P], the protein stability index turned out to be 3.22. Consider LKASGRELGLLIFFLFIGVILFSS [M5G], for which the protein stability index turned out to be 1.28. LKASNRELGLLIFFLFIGVILFSS [M5N]: the protein stability index amounted to 2.51.

In the case of LKASWRELGLLIFFLFIGVILFSS [M5W], the protein stability index was 1.78. On to LKASSRELGLLIFFLFIGVILFSS [M5S], for which the protein stability index is 2.33.

Turning to LKASVRELGLLIFFLFIGVILFSS [M5V], the protein stability index came to 2.79. Then LKASMRELGMLIFFLFIGVILFSS [L10M], with 3.58; and LKASMRELGQLIFFLFIGVILFSS [L10Q], with 2.94; and LKASMRELGKLIFFLFIGVILFSS [L10K], with 4. On to LKASMRELGHLIFFLFIGVILFSS [L10H], for which the protein stability index came out at 3.23. Turning to LKASMRELGRLIFFLFIGVILFSS [L10R], the protein stability index worked out at 2.83.

Regarding LKASMRELGTLIFFLFIGVILFSS [L10T], the protein stability index was determined as 3.06. In the case of LKASMRELGDLIFFLFIGVILFSS [L10D], the protein stability index was 3.28. Regarding LKASMRELGNLIFFLFIGVILFSS [L10N], the protein stability index stood at 4.61. In the case of LKASMRELGALIFFLFIGVILFSS [L10A], the protein stability index worked out at 2.62.

As to LKASMRELGSLIFFLFIGVILFSS [L10S], the protein stability index stood at 2.77. With LKASMRELGPLIFFLFIGVILFSS [L10P], the protein stability index stood at 2.75. Regarding LKASMRELGGLIFFLFIGVILFSS [L10G], the protein stability index turned out to be 4.36. Regarding LKASMRELGFLIFFLFIGVILFSS [L10F], the protein stability index is 2.27. With LKASMRELGYLIFFLFIGVILFSS [L10Y], the protein stability index came to 2.13.

Take LKASMRELGCLIFFLFIGVILFSS [L10C]: the protein stability index is 2.07. For LKASMRELGVLIFFLFIGVILFSS [L10V], the protein stability index was 1.23. Take LKASMRELGILIFFLFIGVILFSS [L10I]: the protein stability index was 2.42. Then LKASMRELGWLIFFLFIGVILFSS [L10W], with 2.58; and LKASMRELALLIFFLFIGVILFSS [G9A], with 1.75; and LKASMRELYLLIFFLFIGVILFSS [G9Y], with 2.34. Under LKASMRELHLLIFFLFIGVILFSS [G9H] stands 1.8; under LKASMRELDLLIFFLFIGVILFSS [G9D], 3.82; under LKASMRELTLLIFFLFIGVILFSS [G9T], 1.72. Then LKASMRELVLLIFFLFIGVILFSS [G9V], with 1.71; and LKASMRELPLLIFFLFIGVILFSS [G9P], with 3.05; and LKASMRELCLLIFFLFIGVILFSS [G9C], with 1.29. For LKASMRELQLLIFFLFIGVILFSS [G9Q], the protein stability index stood at 4.69. On to LKASMRELKLLIFFLFIGVILFSS [G9K], for which the protein stability index turned out to be 3.

Turning to LKASMRELLLLIFFLFIGVILFSS [G9L], the protein stability index came to 1.83. Consider LKASMRELWLLIFFLFIGVILFSS [G9W], for which the protein stability index amounted to 1.54. For the variant LKASMRELRLLIFFLFIGVILFSS [G9R], the protein stability index was 2.48. For the variant LKASMRELELLIFFLFIGVILFSS [G9E], the protein stability index was determined as 4.03.

Regarding LKASMRELSLLIFFLFIGVILFSS [G9S], the protein stability index was 1.98. As to LKASMRELFLLIFFLFIGVILFSS [G9F], the protein stability index came to 2.07. Under LKASMRELMLLIFFLFIGVILFSS [G9M] stands 2.37; under LKASMRELILLIFFLFIGVILFSS [G9I], 2.18.

Regarding LKASMMELGLLIFFLFIGVILFSS [R6M], the protein stability index stood at 3.15. Under LKASMVELGLLIFFLFIGVILFSS [R6V] stands 2.45; under LKASMQELGLLIFFLFIGVILFSS [R6Q], 2.28; under LKASMWELGLLIFFLFIGVILFSS [R6W], 2.35. Under LKASMIELGLLIFFLFIGVILFSS [R6I] stands 3.16; under LKASMHELGLLIFFLFIGVILFSS [R6H], 3.36.

LKASMGELGLLIFFLFIGVILFSS [R6G]: the protein stability index was 2.63. As for LKASMAELGLLIFFLFIGVILFSS [R6A], the protein stability index was determined as 3.59.

For the variant LKASMSELGLLIFFLFIGVILFSS [R6S], the protein stability index was 2.88.

With LKASMPELGLLIFFLFIGVILFSS [R6P], the protein stability index came to 2.36. For the variant LKASMYELGLLIFFLFIGVILFSS [R6Y], the protein stability index is 3.07. LKASMCELGLLIFFLFIGVILFSS [R6C]: the protein stability index was found to be 3.31. LKASMDELGLLIFFLFIGVILFSS [R6D]: the protein stability index was determined as 3.02. Regarding LKASMLELGLLIFFLFIGVILFSS [R6L], the protein stability index is 3.12. For LKASMNELGLLIFFLFIGVILFSS [R6N], the protein stability index turned out to be 2.85. Consider LKASMKELGLLIFFLFIGVILFSS [R6K], for which the protein stability index came to 1.61. For LKASMTELGLLIFFLFIGVILFSS [R6T], the protein stability index was determined as 3.38. Take LKASMRELGLLDFFLFIGVILFSS [I12D]: the protein stability index came to 2.94. Turning to LKASMRELGLLGFFLFIGVILFSS [I12G], the protein stability index worked out at 3.16. In the case of LKASMRELGLLEFFLFIGVILFSS [I12E], the protein stability index came out at 3.27. With LKASMRELGLLCFFLFIGVILFSS [I12C], the protein stability index was found to be 2.52.

As for LKASMRELGLLAFFLFIGVILFSS [I12A], the protein stability index was 1.87. Turning to LKASMRELGLLFFFLFIGVILFSS [I12F], the protein stability index worked out at 2.38.

Values taken from the supplement of paper PMC10567573.
